Test [1] concerns activated T cells in the tumors. As to the kind of experiment: Flow cytometry of immune cells in treated tumors. The format is in vivo, mouse. The note with it: IFNg and TNFa on CD8+ T cells. How it is done:
For initial in vivo studies with SmABHI. SEMA7A OE E0771 mouse mammary carcinoma cells were injected into mice. Twenty days after carcinoma cells were injected. SmAbH1 (e.g., 12 ug) was administered intraperitoneally to the mice every three days until day 36 post-carcinoma cell injection. Tissues were collected at day 36. Tumors, lungs, and LNs were harvested and processed for IHC and flow cytometry to determine the effect of SEMA7A mAb therapy on cells of the tumor microenvironment (TME). In an additional experiment, tumors were treated at day 28 post-injection with a novel SEMA7A directed antibody, monoclonal antibody clone H1. Fully regressed tumors were removed from treatment at day 50) and the animals were re-challenged with an additional tumor inoculation at day 90 to assess SEMA7A mAb effects. […]
Tumors were separated from the mammary gland and placed in six-well plates with 2 mL of Click's media without mercaptoethanol or L-glutamine (Irvine Scientific, Santa Ana, CA), where they were minced with scalpels, digested with 500 units/ml collagenase type II and IV and 20 μg/ml DNase (Worthington Biochemical Corporation, Lakewood, NJ) and incubated for 1 h at 37° C. […] Geometric mean fluorescence intensity (gMFI) was calculated with FlowJo software. […] Cells were then stained with CD8, CD45, CD4, Gating was determined based on unstimulated controls. […]

For another test, the system named is SEMA7A expressing cells. Description: Mammosphere formation and cell death in vitro. The format is cell-based. The protocol:
In another exemplary method, it was observed that SEMA7A was sufficient to promote stem cell phenotypes, including mammosphere formation, anchorage independent growth and resistance to chemotherapy, which is a property of cancer stem cells. Finally. SEMA7A expressing cells display increased functions and markers of cancer stem cells.
MCF10A and MCF12A cells were labeled with CellTrace Violet (ThermoFisher: #C34557) for 20 min at 37° C., according to the manufacturer's instructions. A sample of labeled cells was analyzed by flow cytometry to determine labeling efficiency and fluorescent intensity at time of seeding. Single cells were seeded at a density of 4000 cells/well in μltra-low attachment 24-well plates to induce mammosphere formation. Cells were cultured in normal culture media for 7 days and were subsequently counted, dissociated enzymatically in Accutase, (Stem Cell Technologies, Vancouver, Canada: #07922), and analyzed by flow cytometry. See flow cytometry methods for detailed information.

Test [2] concerns MCF10ADCIS GFP human breast cancer cells. Description: DCIS mouse model, tumor growth and invasion. The format is in vivo. The note with it: IP every third day from day 21. The protocol:
DCIS model: Female SHO mice, aged 6-8 weeks old, are injected with 250,000 MCF10ADCIS GFP human breast cancer cells into both #4 mammary fat pads, then palpated and measured three times a week with digital calipers and tumor visualization is aided by use of the illumatool light source with GFP filter so we can accurately measure tumors. Treatment with SmAb started at day 21 post injection. SmAb treatment is given by IP injection every third day. Weights are taken every treatment day and mice are monitored for weight loss and other health/behavior changes.

Test [3] deals with human breast cancer MCF7A SEMA7A overexpressing cells. Description: Immunofluorescence labeling of TAPI-1 treated SEMA7A overexpressing cells. The note with it: antibody 250:1, FITC secondary, cells treated with TAPI-1. The format is cell-based. The protocol:
In another exemplary method, the ability of anti-SEMA7A monoclonal antibodies to bind and label cells was tested. In an exemplary method, human breast cancer MCF7A SEMA7A overexpressing cells were treated with TAPI-1, a TACE/ADAM17 inhibitor that blocks SEMA7A shedding from the cell surface, and then incubated with an anti-SEMA7A monoclonal antibody (250:1) before visualization with a FITC secondary antibody (1000:1).
Cells were fixed with 2% PFA or 1:1 acetone-methanol for 30 minutes at 4C, before washing once with PBS and blocking with 1% BSA in PBST for 1 hour at room temperature. After removal of the blocking solution, cells were incubated in primary antibody in 1% BSA in PBST overnight at 4° C. The primary antibody (SmAbH1 (lot 022823) was prepared at a 1:250 concentration by adding 4 μL stock solution to ImL 1% BSA in PBS. After primary removal cells were washed with PBS for 10 min×3 and incubated in secondary antibody in 1% BSA in PBS for 1-2 hours at room temperature (covered from light). The secondary antibody (Donkey anti-Mouse IgG Alexa Fluor 488 (Invitrogen A-21202)) was prepared at 1:1000 concentration by adding 1 μL into ImL 1% BSA in PBS. After removal of secondary antibody cells were washed with PBS for 10 min×3. VECTASHIELD Antifade Mounting Medium with DAPI (Vector Labs H-1200-10) was added and the cells were sealed with a glass coverslip. […]

The test system of a further test is SEMA7A isoforms. As to the kind of experiment: Western blot recognition of SEMA7A isoforms. The format is binding. For orientation: Immunoblotting shows a protein as a band on a membrane.
The subject of test [4] is SEMA7A OE E0771 mouse mammary carcinoma cells. As to the kind of experiment: E0771 SEMA7A OE mouse mammary carcinoma model, in vivo antibody treatment. As to conditions: SmAbH1 alone. How it is done: For initial in vivo studies with SmABHI. SEMA7A OE E0771 mouse mammary carcinoma cells were injected into mice. Twenty days after carcinoma cells were injected. SmAbH1 (e.g., 12 ug) was administered intraperitoneally to the mice every three days until day 36 post-carcinoma cell injection. Tissues were collected at day 36. Tumors, lungs, and LNs were harvested and processed for IHC and flow cytometry to determine the effect of SEMA7A mAb therapy on cells of the tumor microenvironment (TME). In an additional experiment, tumors were treated at day 28 post-injection with a novel SEMA7A directed antibody, monoclonal antibody clone H1. Fully regressed tumors were removed from treatment at day 50) and the animals were re-challenged with an additional tumor inoculation at day 90 to assess SEMA7A mAb effects. Finally, to examine changes in immune cells in the tumor microenvironment, tumors were treated at day 13 post-inoculation and harvested at day 18. During this time period, tumors were actively regressing (FIGS. 2A-2C).
E0771 model: Female C57/BL6 mice were injected orthotopically into the left and right #4 mammary fat pads with 200,000 E0771 SEMA7A OE mouse mammary carcinoma cells. Tumors were measured every day once tumors became palpable (3 days post injection). […]

B1: SmAbH1: mouse monoclonal antibody against SEMA7A generated using the 10-mer immunizing peptide … (SEQ ID NO: 2) (antibody, V domains shown)
VH: QVKLQESGTVLARPGASVKMSCKASVYSFTSYWMHWVKQRPGQGLEWIGAIYPGNSDTSYNQKFKGKAKLTAVTSASTAYMELSSLTNEDSAVYYCTRGGAPTMITAYYAMDYWGQGTSVTVSS
VL: DIQMTQTTSSLSASLGDRVTISCRASQDISNYLNWYQQKPDGTVKLLIYYTSRLHSGVPSRFSGSGSGTDYSLTISNLEQEDIATYFCQQGNTLPWTFGGGTKLEIKR
As for B1, the “activated T cells in the tumors” value in test [1] was “increased presence of activated T cells”. Also, in the test on SEMA7A expressing cells, the cell death result is “induce cell death” and the mammosphere formation entry is “reduce mammosphere formation”. In addition, in test [2], the “tumor growth and invasion of ductal carcinoma in situ (DCIS) lesions” value is “block or inhibit tumor growth and invasion”. Moreover, in test [3], the labeling of cells entry is “labeled the cell lines treated with TAPI-I”. The “recognition of SEMA7A isoforms” value with SEMA7A isoforms is “recognition of all three isoforms of SEMATA”. The “tumor growth and metastasis compared to anti-PD-L1 and the combination” value in test [4] is “superior at reducing both tumor growth and metastasis”.

The values above are taken from patent publication US20250206839A1, “METHODS, COMPOSITIONS AND USES FOR SEMA7A MONOCLONAL ANTIBODIES” (THE REGENTS OF THE UNIVERSITY OF COLORADO, A BODY CORPORATE, priority 2022, published 2025).
